Measurements reported in patent publication US20220298231A1 (AC IMMUNE, published 2022).
Where no end group is shown, it is not given here. The star is where a group is joined. Biotin = O=C1N[C@H]2[C@H](CS[C@H]2CCCCC(=O)*)N1; Ahx = NCCCCCC(=O)O

How the values were obtained:
1-15aa [1] = molecular target: T1, 1-15aa; experiment: 15-mer peptide ELISA
T1 construct: also called alpha-synuclein peptide 1-15
T1 peptide: {Biotin-Ahx}-MDVFMKGLSKAKEGV
Method: (§1) Epitope mapping for the antibodies derived from stable hybridoma clones was determined using an indirect ELISA on a library of 15-mer peptides covering the entire sequence of human alpha-synuclein from 1 to 140aa. […] Results are expressed as optical density (O.D.). Each bar represents data for an individual antibody.
(§2) Serum-free supernatants were harvested from stable hybridomas. The supernatants containing antibodies of interest were then screened by an indirect ELISA assay to determine epitopes. Epitopes were first determined using a library of 15-mer peptides covering the entire sequence of human alpha-synuclein protein, spanning amino acids (aa) 1-140 with 9aa offset and 6aa overlap. […] Briefly, streptavidin-coated ELISA plates were blocked overnight at 4° C. […] Plates were washed with PBS/0.05% Tween® 20 and then incubated with the hybridoma supernatants at 1/100 dilution for 1 hour at 25° C. […] After final wash, plates were incubated 2 hours at 25° C. with alkaline phosphatase substrate (p-nitrophenyl phosphate disodium hexahydrate; pNPP, S0942, Sigma) and read the absorbance optical density (O.D.) signal at 405 nm using an ELISA plate reader (Tecan, Switzerland).

28-42aa [2] = experiment: indirect ELISA on biotinylated 15-mer peptide (streptavidin plate), supernatant 1/100
Method: as §1, §2

37-51aa [3] = molecular target: T2, 37-51aa; experiment: as above
T2 construct: also called alpha-synuclein peptide 37-51
T2 peptide: {Biotin-Ahx}-VLYVGSKTKEGVVHG
Method: as §1, §2

82-96aa [4] = molecular target: T3, 82-96aa; experiment: 15-mer peptide ELISA
T3 construct: also called alpha-synuclein peptide 82-96
T3 peptide: {Biotin-Ahx}-VEGAGSIAAATGFVK
Method: as §1, §2

91-105aa [5] = molecular target: T4, 91-105aa; experiment: 15-mer peptide ELISA
T4 construct: also called alpha-synuclein peptide 91-105
T4 peptide: {Biotin-Ahx}-ATGFVKKDQLGKNEE
Method: as §1, §2

37-51aa [6] = molecular target: T2, 37-51aa; experiment: 15-mer peptide ELISA
Method: as §1, §2

1-15aa [7] = molecular target: T1, 1-15aa; experiment: indirect ELISA on biotinylated 15-mer peptide (streptavidin plate), supernatant 1/100
Method: as §1, §2

91-105aa [8] = molecular target: T4, 91-105aa; experiment: as above
Method: as §1, §2

28-42aa [9] = experiment: 15-mer peptide ELISA
Method: as §1, §2

[10] = molecular target: human full-length alpha-synuclein (human, UniProt P37840 1-140); experiment: SPR, mAb captured
Method: (§3) Immobilization levels were evaluated following ethanolamine capping (Bound) and finally following regeneration (Final). Non-covalent immobilization of alpha-synuclein antibodies was performed using a target immobilization method of 2000 response units (RU).
(§4) Binding affinity of alpha-synuclein antibodies to monomeric or fibrillar alpha-synuclein species was performed using a single-cycle kinetics method. […] A dissociation phase of 900 sec followed the final 50 nM injection. Regeneration of the sensor to the goat anti-mouse antibody layer was achieved using 3 regenerations of 10 mM Glycine pH 1.7. […] Regeneration of the sensor to the goat anti-mouse antibody layer was achieved using 3 regenerations of 10 mM Glycine pH 1.7. Results obtained from single-cycle kinetics were evaluated by Biacore T200 evaluation software with 1:1 binding homogenous Langmuir model (with a global Rmax) with Cycle 5 as a blank subtraction. The following kinetic parameters were obtained: on-rate (ka), off-rate (kd), affinity constant (KD, ratio of kd by ka), maximum response (Rmax), and goodness of fit (Chi2).
(§5) Non-covalent capture of the alpha-synuclein antibodies was performed in three separate runs.

alpha-synuclein fibrils = alpha-synuclein fibrils (Homo sapiens (Human), UniProt P37840 1-140); experiment: SPR, mAb captured
Method: as §3, §4, §5

82-96aa [11] = molecular target: T3, 82-96aa; experiment: 15-mer peptide ELISA
Method: as §1, §2

100-114aa = molecular target: T5, 100-114aa; experiment: 15-mer peptide ELISA;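 note: indirect ELISA of hybridoma supernatant antibodies (1/100, 1 h) binding immobilized 15-mer peptides spanning human alpha-synuclein 1-140 on streptavidin plates, read as optical density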
T5 peptide: {Biotin-Ahx}-LGKNEEGAPQEGILE
Method: as §1, §2

109-123aa = molecular target: T6, 109-123aa; experiment: 15-mer peptide ELISA;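 note: indirect ELISA of hybridoma supernatant antibodies (1/100, 1 h) binding immobilized 15-mer peptides spanning human alpha-synuclein 1-140 on streptavidin plates, read as optical density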
T6 peptide: {Biotin-Ahx}-QEGILEDMPVDPDNE
Method: as §1, §2

91-105aa [12] = molecular target: T4, 91-105aa; experiment: indirect ELISA on biotinylated 15-mer peptide (streptavidin plate), supernatant 1/100
Method: as §1, §2

82-96aa [13] = molecular target: T3, 82-96aa; experiment: as above
Method: as §1, §2

B1: ACI-7087-4119E10-Ab2 (antibody, V domains shown)
VH: QVQLQQSGAELVRPGASVTLSCKASGYTFSDYEMNWVKQTPVHGLEWIGAIDPETGGTAYNQKFKGKAILTSDKSSSTAYMELRSLTSEDSAVYYCTRFLLIDFDYWGQGTTLTVSS
VL: DVLMTQTPLSLPVSLGDQASISCRSSQSIVHSNGNTYLEWYLKKAGQSPKVLIYKVSNRFSGVPDRFSGSGSGTDFTLKISRVEAEDLGVYYCFQGSHVPYTFGGGTELEIK
notes: mouse hybridoma mAb; also called 4119E10D12
binding result (1-15aa [1]): no binding (tested: supernatant 1/100) | binding result (28-42aa [2]): binds | binding result (37-51aa [3]): binds | binding result (82-96aa [4]): no binding (tested: supernatant 1/100) | binding result (91-105aa [5]): no binding (tested: supernatant 1/100)

B2: ACI-7088-4305H7-Ab1 (antibody, V domains shown)
VH: EVQLQQSGAELVRPGASVKLSCTASGFNIKDDYMHWVKQRPEQGLEWIGWIDPENGDTEYASKFQGKATMIADTSSNTAYLQLSSLTSEDTAVYYCKTWGTTQALFPYWGQGTLVTVSS
VL: DIVMTQSQKFMSTSVGDRVSITCKASQNVGTAVGWYQQKAGQSPKLLIHSASNRYTGVPDRFTGSGSGTDFTLTINNMQSEDLADYFCQQYRSYPLTFGAGTKLELK
notes: mouse hybridoma mAb; also called 4305H7A4
binding result (37-51aa [6]): no binding (tested: supernatant 1/100) | binding result (1-15aa [7]): binds | binding result (82-96aa [4]): no binding (tested: supernatant 1/100) | binding result (91-105aa [8]): binds

B3: ACI-7088-4301D5-Ab2 (antibody, V domains shown)
VH: QVQLQQSGPELVRPGASVKISCKASGYRFTSYYIHWVKQRPGQGLEWIGWIYPGSDNTKHNDKFKGKATLTADTSSSTAYMQLSSLTSEDSAVYFCARDYDVGFGYWGQGTLVTVSS
VL: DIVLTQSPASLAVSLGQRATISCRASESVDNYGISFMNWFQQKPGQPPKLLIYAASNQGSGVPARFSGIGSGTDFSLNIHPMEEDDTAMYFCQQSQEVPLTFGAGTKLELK
notes: mouse hybridoma mAb; also called 4301D5B10
binding result (1-15aa [1]): no binding (tested: supernatant 1/100) | binding result (28-42aa [2]): binds | binding result (37-51aa [3]): binds | binding result (82-96aa [4]): no binding (tested: supernatant 1/100) | binding result (91-105aa [5]): no binding (tested: supernatant 1/100)

B4: ACI-7088-4303H6-Ab1 (antibody, V domains shown)
VH: EVQLQQSGAELVRPGASVKLSCTASGFNIQDDYMHWVKQRPEQGLEWIGWIDPENGDTEYASKFQGKATLTADTSSNTAYLQLSRLTSEDTAVYYCTTAGSGVQLFDYWGQGTTLTVSA
VL: DILMTQSQKFMSTSVGDRVSVTCKASQNVGTNVAWYQQKPGQSPKPLISSASSRYSGVPDRFTGSGSGTDFTLTISNVQSEDLADYFCQQYNRYPLTFGAGTKLELK
notes: mouse hybridoma mAb; tied by the hybridoma code 4303H6D7; also called 4303H6D7
binding result (1-15aa [1]): no binding (tested: supernatant 1/100) | binding result (37-51aa [6]): no binding (tested: supernatant 1/100) | binding result (82-96aa [4]): no binding (tested: supernatant 1/100) | binding result (91-105aa [8]): binds

B5: ACI-7089-4417G6-Ab1 (antibody, V domains shown)
VH: QVQLQQSGAELVRPGASVTLSCKASGYTFTGYEMHWVKQTPVHGLEWIGAIDPETGGTAYIQKFKGKATLTADKSSSTAYMELRSLTSEDSAVYYCTRGWDYFDYWGQGTTLTVSA
VL: DVVMTQTPLSLPVSLGDQASISCRSSQSLLHSNGFTYLHWYLQKPGQSPKLLIYRVSNRFSGVPDRFSGSGSGTDFTLKISRVEAEDLGVYFCSQSTHVPYTFGGGTKLEIK
notes: mouse hybridoma mAb; also called 4417G6B12
binding result (28-42aa [9]): no binding (tested: supernatant 1/100) | binding result (1-15aa [1]): no binding (tested: supernatant 1/100) | binding result (82-96aa [4]): no binding (tested: supernatant 1/100) | binding result (91-105aa [5]): no binding (tested: supernatant 1/100) | Kd [10]: 22.6 nM | koff [10]: 5.58 s⁻¹ | kon [10]: 2.47e+08 M⁻¹ s⁻¹ | Kd (alpha-synuclein fibrils): 48.7 nM | koff (alpha-synuclein fibrils): 0.00874 s⁻¹ | kon (alpha-synuclein fibrils): 179000 M⁻¹ s⁻¹

B6: ACI-8033-4F3-Ab1 (antibody, V domains shown)
VH: EVQLQQSGPELVKPGASVKISCKASGYTFTDYYMNWVKQSHGKSLEWIGDINPNTGTNSYNQKFKGRASLTVDKFSSAAYMELRSLTSEDSAVYYCARTGYGDPISSYYYALDYWGQGTSVTVSS
VL: DIVMSQSPSSLAVSAGEKVTMSCKSSQSLLNSRTRKNYLAWYQQKPGQSPKLLIYWASTRESGVPDRFTGSGSGTDFTLTISSVQAEDLAVYYCKQSYNLWTFGGGTKLEIK
notes: mouse hybridoma mAb; also called 917.4F3F4G6
binding result (82-96aa [11]): no binding (tested: supernatant 1/100) | binding result (100-114aa): no binding (tested: supernatant 1/100) | binding result (109-123aa): no binding (tested: supernatant 1/100) | binding result (91-105aa [12]): binds

B7: ACI-7088-4303B6-Ab2 (antibody, V domains shown)
VH: EVQLQQSGPELVKPGASVKISCKASGYTFTDYYMNWVKQSHGKSLEWIGDINPNNGGTTYNQKFKDKATLTVDRSSSTAYMELRSLTSGDSAVYYCARSGYSGSRLYYAMDYWSQGSSVTVSS
VL: DIVMSQSPSSLAVSAREKVTMSCKSSQSLLNSRTRKNYLAWYQQKPGQSPKLLIFWASTRESGVPDRFTGSGSGTDFTLTISSVQAEDLAVYYCKQSYDLWTFGGGTKLEIK
notes: mouse hybridoma mAb; tied by the hybridoma code 4303B6C11; also called ACI-7088-4303B6-Ab1; 4303B6C11
binding result (28-42aa [9]): no binding (tested: supernatant 1/100) | binding result (37-51aa [6]): no binding (tested: supernatant 1/100) | binding result (1-15aa [7]): binds | binding result (82-96aa [4]): no binding (tested: supernatant 1/100) | binding result (91-105aa [5]): no binding (tested: supernatant 1/100) | Kd [10]: 78.5 nM | koff [10]: 0.106 s⁻¹ | kon [10]: 1.35e+06 M⁻¹ s⁻¹ | Kd (alpha-synuclein fibrils): 9.5 nM | koff (alpha-synuclein fibrils): 0.00013 s⁻¹ | kon (alpha-synuclein fibrils): 13700 M⁻¹ s⁻¹

B8: ACI-8033-17F5-Ab1 (antibody, V domains shown)
VH: EVQLQQSGPELVKPGASVKISCKASGYTFTDYFMNWVKQSHGKSLEWIGDINPNIDVTNYNQKFKGKATLTVDKSSSTAYMELRSLTSEDSAVYYCARGRDYAMDFWGQGTSVTVSS
VL: DIVMSQSPSSLAVSAGEKVTMSCKSSQSLLNSRTRKNYLAWYQQKPGQSPKLLIYWASTRESGVPDRFTGSGSGTDFTLTISSVQAEDLAVYYCKQSYDLWTFGGGTKLEIK
notes: mouse hybridoma mAb; also called 917.17F5F5G9
binding result (82-96aa [11]): no binding (tested: supernatant 1/100) | binding result (100-114aa): no binding (tested: supernatant 1/100) | binding result (109-123aa): no binding (tested: supernatant 1/100) | binding result (91-105aa [12]): binds

B9: ACI-8033-8C10-Ab1 (antibody, V domains shown)
VH: DVQLQESGPGLVKPSQSLSLTCSVTGQSITSGYYWNWIRQFPGNKLEWMGYISNDGSSKTNPSLTNRISVTRDTSKNQVFLKLKSVTTEDTATYYCVRGDQHWGQGTALTVSS
VL: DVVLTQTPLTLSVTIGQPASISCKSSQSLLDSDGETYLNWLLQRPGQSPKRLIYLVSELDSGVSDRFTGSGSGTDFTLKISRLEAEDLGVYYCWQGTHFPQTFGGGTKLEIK
notes: mouse hybridoma mAb; also called 917.8C10C6G3
binding result (100-114aa): no binding (tested: supernatant 1/100) | binding result (109-123aa): no binding (tested: supernatant 1/100) | binding result (82-96aa [13]): binds
